Source: the nanobody polyreactivity screen of Harvey et al. (2022)

Assay: yeast display, Sf9 membrane polyspecificity reagent, FACS + sequencing; frameworks hold sequencing errors
Procedure, shortened: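 Sorting gates, low and high (top ~1%), were placed on anti-HA fluorescence to track expression and on streptavidin fluorescence to track reagent binding. A clone's polyreactivity label is taken from the gate it came out of. The reagent was 10% biotinylated, detergent-solubilized Sf9 membrane, applied for 1 hour at 4 °C to galactose-induced yeast display cells.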

Sequence: QVKLVESGGGLVQAGRSLRLSCAASGFTFSANTMGWYRQAPGKERELVAAITRGGRTYYADSVKGRFTISRDNAKNTVYLQMNSLKPEDTAVYYCAKRATWYTVTREGYWGQGTQVTVTS
- polyreactivity (PSR sort gate): high polyreactivity

Sequence: QVQLVESGGGLVQAGGSLRLSCAASGSIFTFYAMGWYRQAPGKEREVVARITNGGNTNYADSGKGRFTISRDNAKNTVYLQMNSLKPEDTEVYYCAARWYWGWTRGDYWGQRTQVTVSS
- polyreactivity (PSR sort gate): high polyreactivity

Sequence: QVQLVESGGGLVQAGGSLRLSCAASGITFTEYAMGWYRQAPGKERELVATISYGGGITYYADSVKGRFTISRDNAKNTVYLQMNSLKPEDTAVYYCAADGLSQVQRGMDYWGQGTQVTVSS
- polyreactivity (PSR sort gate): low polyreactivity

Sequence: QVQLVESGGGLVQAGGSLRLSCAASGFTFYYYAMGWYRQAPGKERELVARITSGGSTYYADSVKGRFTISRDNAKNTVYLQMISLKPEDTAVYYCNVDVSVEVAYWGQGTQVTVSS
- polyreactivity (PSR sort gate): low polyreactivity

Sequence: QVQLVESGGGLVQAGGSLRLSCAASGITFDRYLMGWYRQAPGKERELDAAISWTGDSTYYADSVKGRFTISRDNAKNTVYLQMNSLKPEDPAVYYCAAEDLWYGYNYWGQGTQVTVSS
- polyreactivity (PSR sort gate): high polyreactivity

Sequence: QVQLQESGSGQVQAGGSLRLSCAASGAIFPAYLMGWYRQAPGKERELVAGISYGSITYCADSVKGRFNISRDNAKNTVYLQMNSLKPEDTAVYYCAVWRPGGDEYYYWGQGTQVTVSS
- polyreactivity (PSR sort gate): low polyreactivity

Sequence: QVQLVESGGGLVQAGGSLRLSCAASGSTFGWYAMGLYRQAPGKERELVATISSGGSTYYADSVKGRFTISRDNAKNTVYLQMNSLKPEDTAVYYCAADYWTYEYPGYDYWGQGTQVTVSS
- polyreactivity (PSR sort gate): low polyreactivity

Sequence: QVQLVESGGGLVQAGGSLRLSCAACGGTFRSNAMGWYRQAPGKERELVAASTNYADSVKGRFTISRDNAKNTVYLQMNSLKPEDTAVYYCAAGPTDSQTGMDYWGQGTQVTVSS
- polyreactivity (PSR sort gate): low polyreactivity

Sequence: QVQLVESGGGLVQAGGSLRISCAASGSIFRIYAMGWYRQAPGKERELVAAISWTGGSTYYADSVKGRFSISRDNAKNTVYLQMNSMKPDDTAVYYCASRPRYKFSAYEYWGQGTQVTVSS
- polyreactivity (PSR sort gate): high polyreactivity

Sequence: QVQLVESGGGLVQAGGSLRLSCAASGSIFGGNAMGWYRQAPGKERELVATITVRGGSTYYADSVKGRFTISRDNAKHTVYLQMNSLKPEDTAVYYCAARGGYLLPKYDYWGQGTQVTVSS
- polyreactivity (PSR sort gate): low polyreactivity

Sequence: QVQLVESGGGLVQAGGSLRLSCAASGITFVLYAMGWYRQAPGKERELVAAISSGGRTKYADSVKGRFTISRDNAKNTVYLQMNSLKPEDTAVYYCATKTRYLYPAYYYWGQGTQVTVSS
- polyreactivity (PSR sort gate): high polyreactivity

Sequence: QVQLEESGGGLVQAGGSLRLSCAASGSIIAGYAMGWYRQAPGKERELVAAISQRGTSTYYADSVKGRFTISRDNAKNTVYLQMNSLKPEDTAVYYCAARVVSRMDYWGQGTQVTVSS
- polyreactivity (PSR sort gate): high polyreactivity

Sequence: QVQLVESGGGIVQAGGSLRLSCAASGYNFRSYVMGWYRQAPGKERELVAAISVSGGRTYYADSVKGRFTISRDNAKNTVYLQMNSLKPEDTAVYYCATDPYSYYWPSHMDYWGQGTQVTVSS
- polyreactivity (PSR sort gate): high polyreactivity

Sequence: QVQLVESGGGLVQAGGSLRLSCAASGRTFRYNAMGWYRQAPGKERELVASIRYSSASTYYADSVKGRFTISRDNAKNTVYLQMNSLKPEDTAVYYCAASWYPVIVGYDYWGQGTQVTVSS
- polyreactivity (PSR sort gate): high polyreactivity

Sequence: QVKLVESGGGLVQAGGSLRLSCAASGFTFSRNTMGWYRQAPGKERELVATISFRGGTTYYADSVKGRFTISRDNAKNTVYLQMNSLKPEDTAVYYCAVKVGFVRLLYHYYYWGQGTQVTVSS
- polyreactivity (PSR sort gate): high polyreactivity

Sequence: QVQLVESGGGLVQAGGSLRLSCAASGSIFITYAMGWYRQAPGKERELVAAIRDSGDRTYYADSVKGRFTISRDNAKNTVYLQMNRLKPEETAVYYCNARWQEPLKYDYWGQGTQVTVSS
- polyreactivity (PSR sort gate): low polyreactivity

Sequence: QVQLVESGGGLVQAGGSLRLSCAASGRIFNFYAMGWYRQAPGKERELVASITGSTGSTYYADSVKGRFTISRDNAKNTVYLQMNSLKPEDTAVYYCNTYRVTRDYYWGQGTQVTVSS
- polyreactivity (PSR sort gate): low polyreactivity

Sequence: QVQLVESGGGLVQAGGILRLSCAASGSNFWTNAMGWYRQAPGKERELVARISPGGSTNYADSVKGRFTISRDNAKNTVYLQMNSLKPEDTAVYYCAAQRGYVYGYDYWGQGTQVTVSS
- polyreactivity (PSR sort gate): low polyreactivity

Sequence: QVQLVESGGGLVQAGGSLRLSCAASGRTFHTNAMGWYRQAPGKERELVAAITRSGSGTYYADSVKGRFTISRDNAKNTVYLQMNSLKPEDTAVYYCNAVRRGEYDYWGQGTQVTVSS
- polyreactivity (PSR sort gate): high polyreactivity

Sequence: QVQLVESGGGLVQAGGSLRLSCAASGRTFKYNAMGWYRQAPGKERELVAAISSRGGSTYYADSVKGRFTISRDNAKNTVYLQMISLKPEDTAVYYGANATSSSEYGYDYWGQGTQVTVSS
- polyreactivity (PSR sort gate): high polyreactivity

Sequence: QVQLVESGGGLVQAGGSLRLSCAASGSTFFSYDMGWYRQAPGKERELVATISTSVGRTYYADSVKGRFTISRDNAKNTVYLQMNSLKPEDTAVYYCATVGYLYTPVVVTWWDWGDYWGQGTQVTVSS
- polyreactivity (PSR sort gate): low polyreactivity

Sequence: QVQLVESGGGLVQAGGSLRLSCAASGSIFSLYAMGWYRQAPGKERELVAAISQSGDSTFYADSVKGRFTISRDHAKNTVYLQMNSLKPEYTAVSYCAADPRNKAWKWDDYWGQGTQVTVSS
- polyreactivity (PSR sort gate): low polyreactivity

Sequence: QVQLVESGGGLVQAGGSLRLSCAASGSILASYAMGWYRQAPGKERELVAAINRGGRTKYADSVKGRFTISRDNAKNTVYLQMNSLKPEDTAVYYCAKSDSQYEGDGYWGQGTQVTVSS
- polyreactivity (PSR sort gate): high polyreactivity

Sequence: QVQLVESGGGLVQAGGSLRLSCAASGITFYDYDMGWYIQAPGKERELVADISYSGGGTYYADSVKGRFTISRDNAKNTVYLQMNSLKPEDTAVYYCAADSQRYYGDYYWGQGTQVTVSS
- polyreactivity (PSR sort gate): high polyreactivity

Sequence: QVQLVESGGGLVQAGGSLRLRCAASGSTFAWYAMGWYRQAPGKERELVAAISRTGRTYYADSVKGRFTISRDNAKNTVYLQMNSLKPEDTAVYYCAARIERFYRDQRYDYWGQGTQVTVSS
- polyreactivity (PSR sort gate): high polyreactivity

Sequence: QVQLVESGGGLVQAGGSLRLSCAASGRTFWYNALGWYRQAPGKERELVAAISWSGGTTYYADSVKGRFTISRDNAKNTVYLQMNSLKPEDTAVYYCNAKYRGLAKYDYWGQGTQVTVSS
- polyreactivity (PSR sort gate): high polyreactivity

Sequence: QVQLVESGGGLVQAGGSLRLSCAASGRTSYYNTMGWYRPAPGKERELVAASTGRGDSTYYADSVKGRFTISRDNAKKTGYLQMNSLKPEDTAVYYCAADELHLLYRVSKFVDYNHWGQGTQVTVSS
- polyreactivity (PSR sort gate): low polyreactivity

Sequence: QVQLVESGGGLVQAGGSLRLSCAASGRIFNLYAMGWYRQAPGKERELVAAISWRGGSTYYADSVKGRFTISRDNAKNTVYLQMNSLKPEDTAVYYCAATFFTYVYRYYYWGQGTQVTVSS
- polyreactivity (PSR sort gate): high polyreactivity

Sequence: QVQLVESGGGLVQAGGSLRLSCAASGSIFDVNAMGCARQAPGNERELVAGISWSGGSTYYADSVKGRFTISRDNAKNTVYLQMNSLKPEDTAVYYCNAEGPIYFYFYRGMDYWGQGTQVTVSS
- polyreactivity (PSR sort gate): low polyreactivity

Sequence: QVQLVESGGGLVQAGGSLRLSCAASGSIFYNNAMGWYRQAPGKERELVATIRRSGGSTYYADSVKGRFTISRDNAKNTVYLQMNSLKPEDTAVYYCAADYTPDLLSKVDYWGQGTQVTVSS
- polyreactivity (PSR sort gate): low polyreactivity

Sequence: QVQLVESVGGLVQPGGSLRLSCAASGRTFGRYAKGWYRQAPGKERELVAGISRSGDSTHYADSLKGRFTISRDNAKYCVYLQMKSLKPEDTEVYYCNKETPTIGARKYEYWGQGTQVNVSS
- polyreactivity (PSR sort gate): low polyreactivity

Sequence: QVQLVESGGGLVQSGGSLRLSCAASGFIFPVYTLGWYRHAPGKERELDAAITQIGGSTHYADSVKGRFTISRDNAKNTVYLQMNSLKPEDTAVFYCKAVPSYGTEYDYWGQGTQVTVSS
- polyreactivity (PSR sort gate): low polyreactivity

Sequence: QVQLVESGGGLVQAGGSLRLSCAASGRIFGYNAMGWYRQAPGKERELVAAITNGGSTNYADSVKGRFTISRDNAKNTVYFHMNSLKPEDTAVYYCAVKWYPPGHDYWGQGTQVTVSS
- polyreactivity (PSR sort gate): low polyreactivity

Sequence: QVQLVESGGGLVQAGGSLRLSCAASGRIFYPYAMGWYRQAPGKEWELVAAINRSAGSTSYADSVKGRFTISRDNAKNTVYLQMKSLKPEDTAVYYCAAQGRWHRHFDYWGQGTQVNVSS
- polyreactivity (PSR sort gate): high polyreactivity

Sequence: QVQLVESGGGLVQAGGSLRLSCAASGRIFSRNTMGWYRQATGKEREFVAAISQSGGRTYYADSVKGRFTISRDNAKNNVYLQMNSLKPEDTAVYYCAARSRGYDIRYGYWGQGTQVTVSS
- polyreactivity (PSR sort gate): high polyreactivity

Sequence: QVQLVESGGGLVQAGGSLRLSCAASGITFAFYDKGWYRQPPGKERELVAAISYSGGGTYYADSVKGRFTISRDNAKNNVYLQMNSLKPEDTAVYYCAADPKTHPLFGEDYWGQGTQVTVSS
- polyreactivity (PSR sort gate): low polyreactivity

Sequence: QVQLVESGGGLVHAGGSLRLSCAASGRIFYKYAMAWYRQAPGKERELVAAISTRGGSTYYADSVKWRFTISRDNAKNTVYLQMNSLKPEDTAVYYCAALSAYGYDYWGQGTQVTVSS
- polyreactivity (PSR sort gate): high polyreactivity

Sequence: QVQLVESGGGLVQAGGSLRLSCAASGRTFYRNAMGWYRQAPGKERELVAGITRGGRTYYADSVKGRFTISRDNAKNTVYLQMNSLKPEDTAVYYCAKGRSWQIYYKGGIKGGYWGQGTQVTVSS
- polyreactivity (PSR sort gate): low polyreactivity

Sequence: QVQLVESGGGLVQAGGSLRLSCAASGRIFTGNAMGWSRQAPGKERELVAAISASGSSSYYADSVKGRFTISRDNAKNTVYLQMNSLNPEDTAVYYCAAEGWYCYYYWGQGTQVTVSS
- polyreactivity (PSR sort gate): high polyreactivity

Sequence: QVQLVESGGGLVQAGGSLRLSCAASGFIFIYNVMGWYRPAPGKERELVAAINRGGSTKYADSVKGRFTISRDNAKNTVYLQMNSLKPEDTAVYYCAARYDGSRYHYDGYDYWGQGTQVTVSS
- polyreactivity (PSR sort gate): low polyreactivity

Sequence: QVQLVESGGGLVQAGGSLRLSCAASGRIFGRYTMGWYRQAPGKERELVAGITSSGGRTYYADSVKGRFTISRDNANNTVYLQMNSLKPEDTAVYYCAAKRWSVPSLYNYWGQGTQVTVSS
- polyreactivity (PSR sort gate): high polyreactivity

Sequence: QVQLVESGGGLVQAGGILRLSCAASGSTFGYYAMGWYRPAPGKERELVAAIRSDDITYYADSVKGRFTISRDNAKNTVYLQMISLKPEDTAVYYCAVSQRYGGRRGCYWGQGTQVTVSS
- polyreactivity (PSR sort gate): low polyreactivity

Sequence: QVQLVESGGGLFQAGGSLRLSCAASGSIFDDYAMGWYRQAPGKERELVAAISSSGTSTYYADSVKGRFTISRDNAKNTVYLQMNSLKPEDTAVFYCAARSAILKSGYLMDYWGQGTQVTVSS
- polyreactivity (PSR sort gate): low polyreactivity
